In this experiment the target is multiubiquitinated proteins (of HEK293T cells). Briefly: cell-based or functional assay.

The record followed here is patent publication US20050261190A1.

Chain of Flag-tagged hFAF1 (human Fas associated factor 1, full form) (Q9UNN5 other isoform, or with tags, fused parts or gaps): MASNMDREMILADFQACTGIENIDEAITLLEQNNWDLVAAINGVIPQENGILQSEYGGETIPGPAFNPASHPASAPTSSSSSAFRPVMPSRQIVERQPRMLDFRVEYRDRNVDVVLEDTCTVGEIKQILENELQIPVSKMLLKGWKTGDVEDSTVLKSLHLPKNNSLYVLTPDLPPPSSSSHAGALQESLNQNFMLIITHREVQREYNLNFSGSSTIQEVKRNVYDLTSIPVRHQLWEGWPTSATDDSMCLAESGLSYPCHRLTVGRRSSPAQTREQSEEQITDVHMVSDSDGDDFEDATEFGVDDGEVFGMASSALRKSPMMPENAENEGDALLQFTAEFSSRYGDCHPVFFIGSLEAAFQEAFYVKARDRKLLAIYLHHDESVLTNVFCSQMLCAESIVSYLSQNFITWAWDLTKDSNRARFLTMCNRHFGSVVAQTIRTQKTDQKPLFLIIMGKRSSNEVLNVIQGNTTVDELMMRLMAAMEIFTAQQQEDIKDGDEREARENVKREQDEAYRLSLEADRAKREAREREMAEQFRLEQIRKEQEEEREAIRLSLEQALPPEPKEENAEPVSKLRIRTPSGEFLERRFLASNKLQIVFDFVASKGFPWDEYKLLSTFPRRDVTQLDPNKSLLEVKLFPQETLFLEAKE

Substance “Flag-tagged hFAF1 (human Fas associated factor 1, full form) (from UniProt Q9UNN5 1-650)” yielded a mean fluorescence intensity of the Ub^G76V-GFP reporter (flow cytometry) of 2 fold.
